The values that follow come from patent US6887705B1, “Tyrosine phosphorylated cleavage furrow-associated proteins (PSTPIPs)” (Genentech, Inc., priority 1997, dated 2005).

Test [1] has as its target T1, double mutant of PTP HSCF with both R444 and W450 mutated to alanine, HA tagged (UniProt Q61152 1-453).
T1 construct: range 1-453; also called R+W; R444+W450
T1 sequence (looked up): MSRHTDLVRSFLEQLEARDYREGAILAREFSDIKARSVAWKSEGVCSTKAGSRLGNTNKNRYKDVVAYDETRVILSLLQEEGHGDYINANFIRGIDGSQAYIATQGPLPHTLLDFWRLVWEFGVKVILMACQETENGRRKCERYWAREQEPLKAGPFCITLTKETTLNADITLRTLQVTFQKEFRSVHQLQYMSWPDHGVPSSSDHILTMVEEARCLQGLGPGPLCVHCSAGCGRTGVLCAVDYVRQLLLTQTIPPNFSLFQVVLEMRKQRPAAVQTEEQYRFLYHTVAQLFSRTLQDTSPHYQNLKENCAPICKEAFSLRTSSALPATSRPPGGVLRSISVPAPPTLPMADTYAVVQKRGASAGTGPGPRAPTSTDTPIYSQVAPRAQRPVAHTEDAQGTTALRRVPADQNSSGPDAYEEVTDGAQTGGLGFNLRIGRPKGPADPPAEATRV
Description: anti-HA immunoprecipitation from co-transfected COS cells, blot with anti-PST PIP. Here is the method: Multiple bands precipitated with the GST PST PIP fusion protein are apparently C-terminal proteolyzed products of the PTP. Also shown are GST PST PIP precipitations (10 μg/ml) performed on a double mutant of PTP HSCF (R+W) with both residues $R444$ and $W450$ mutated to alanine (bottom panel FIG. 14 A/2). B. COS cells were co-transfected with a 10:1 ratio of plasmids encoding hemagglutinin (HA) tagged PTP HSCF with the illustrated alanine substitutions or a mutant of PTP HSCF deleted for the C-terminal 24 amino acids (PTP $HSCFD24$) and wild type PST PIP with a C-terminal FLAG epitope tag, respectively. Transfected cell lysates were immunoprecipitated with anti-HA monoclonal antibodies and the precipitates were blotted with anti-PST PIP polyclonal antibody to detect the relative amounts of PST PIP complexed with either wild type or different mutant forms of PTP HSCF. […] Equal expression of PSTPIP was determined by immunoprecipitating lysates with anti-FLAG monoclonal antibody and blotting with anti-PST PIP polyclonal antibody.
In vitro binding analyses between various PTP HSCF and PST PIP constructs were performed as previously described (Spencer et al, (1997), supra). […] Samples were than reacted with GST fusion proteins at various concentrations, and the bound proteins were centrifuged using glutathione-sepharose beads and analyzed on SDS polyacrylamide gels. […]

Test [2] deals with T2, PST PIP missing 75 amino acids from the N-terminus (delta 75), C-terminal FLAG (murine, UniProt P97814 76-415).
T2 construct: The 5' primer (N-coil.3, Ser76) carries ATGATG before the first PSTPIP codon
T2 sequence: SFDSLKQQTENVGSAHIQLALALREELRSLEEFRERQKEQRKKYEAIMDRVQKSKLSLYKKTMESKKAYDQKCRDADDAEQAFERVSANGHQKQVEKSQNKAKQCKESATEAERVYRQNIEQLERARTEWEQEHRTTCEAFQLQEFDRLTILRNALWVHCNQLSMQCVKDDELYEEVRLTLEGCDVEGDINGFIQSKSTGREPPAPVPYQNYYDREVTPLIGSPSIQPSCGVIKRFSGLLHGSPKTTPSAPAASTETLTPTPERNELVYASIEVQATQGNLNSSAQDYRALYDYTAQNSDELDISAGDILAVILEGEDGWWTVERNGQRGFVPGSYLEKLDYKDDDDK
Description: GST-PTP HSCF pulldown of in vitro translated PST PIP deletion mutant. From the text:
(§1) FIG. 9. N Terminal Truncations Result in a Loss of PST PIP Binding to PTP HSCF. Full length PST PIP (Spencer et al., *J. Cell. Biol.*, 138(4):845–860 (1997)) and forms missing 25 (delta 25), 50 (delta 50) and 75 (delta 75) amino acids from the N-terminus were transcribed and translated in vitro. The upper panel illustrates immunoprecipitation of the proteins with an antibody directed against a PST PIP C-terminal FLAG epitope. The lower panel illustrates the same proteins precipitated with a GST fusion protein containing the C-terminal 149 amino acids of PTP HSCF (Cheng et al., *Oncogene* 13:2275–2279 (1996)) including the C-terminal proline rich binding site.
(§2) In vitro binding analyses between various PTP HSCF and PST PIP constructs were performed as previously described (Spencer et al, (1997), supra). Briefly, plasmids were transcribed and translated in vitro using the TnT Rabbit Reticulocyte Lysate System (Promega). Samples were diluted in 50 mM HEPES, pH 7.2, 1% triton X-100, 10% glycerol, 100 mM NaCl, and 2 µg/ml each of leupeptin, pepstatin, aprotinin and PMSF (lysis buffer). Samples were than reacted with GST fusion proteins at various concentrations, and the bound proteins were centrifuged using glutathione-sepharose beads and analyzed on SDS polyacrylamide gels. […]

Test [3] addresses T3, PST PIP missing 50 amino acids from the N-terminus (delta 50), C-terminal FLAG (murine, UniProt P97814 51-415).
T3 construct: The 5' primer (N-coil.2, Glu51) carries ATGATG before the first PSTPIP codon
T3 sequence: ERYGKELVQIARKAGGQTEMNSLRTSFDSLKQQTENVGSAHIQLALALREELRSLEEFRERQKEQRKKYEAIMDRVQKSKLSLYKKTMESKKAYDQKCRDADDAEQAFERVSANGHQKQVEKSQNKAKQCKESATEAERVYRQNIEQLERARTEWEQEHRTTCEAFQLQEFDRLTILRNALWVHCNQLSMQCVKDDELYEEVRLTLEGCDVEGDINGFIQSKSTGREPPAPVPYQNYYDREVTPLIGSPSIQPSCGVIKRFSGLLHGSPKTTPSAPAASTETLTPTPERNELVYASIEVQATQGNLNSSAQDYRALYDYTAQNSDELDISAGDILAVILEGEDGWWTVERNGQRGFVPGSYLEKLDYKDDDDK
The test is described as above.
From the text: as §1, §2

The target of test [4] is T4, W232A mutant of PST PIP, C-terminal FLAG (murine, UniProt P97814 1-415).
T4 construct: In vitro translated or expressed in COS cells; also called W232A PST PIP; PST PIP with an alanine replacement mutation at tryptophan232
T4 sequence: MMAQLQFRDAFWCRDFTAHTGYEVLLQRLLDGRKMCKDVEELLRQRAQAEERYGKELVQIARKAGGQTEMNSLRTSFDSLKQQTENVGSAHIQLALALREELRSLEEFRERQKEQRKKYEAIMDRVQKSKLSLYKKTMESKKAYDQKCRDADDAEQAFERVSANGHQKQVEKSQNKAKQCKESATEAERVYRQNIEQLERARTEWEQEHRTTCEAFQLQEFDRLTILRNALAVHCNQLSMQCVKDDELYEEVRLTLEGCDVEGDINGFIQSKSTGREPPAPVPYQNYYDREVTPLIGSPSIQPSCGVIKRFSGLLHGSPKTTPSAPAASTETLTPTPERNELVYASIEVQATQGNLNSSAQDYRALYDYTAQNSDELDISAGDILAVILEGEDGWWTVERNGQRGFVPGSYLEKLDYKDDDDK
Description: GST-PTP HSCF pulldown of in vitro translated PST PIP mutant. As to the method: as §2, with “gels. C-terminally-derived peptide inhibition studies were performed by incubating the GST fusion protein binding reactions in the presence of 10 µg/ml of the indicated peptides. Peptides were produced by FMOC-protected amino acids as previously described (Spencer et al, (1997), supra). In vivo interactions between various forms of PTP HSCF and PST PIP were also performed as previously described (Spencer et al, (1997), supra). Briefly, COS cells were transfected with various constructs, and after 48 hours, lysates were prepared and immunoprecipitated with antibodies to either the FLAG epitope contained at the C-terminus of PST PIP or an HA epitope contained at the N-terminus of PTP HSCF.” for “gels.”

B1: full-length PSTPIP tagged with the FLAG epitope at the C-terminus (other)
chain: MMAQLQFRDAFWCRDFTAHTGYEVLLQRLLDGRKMCKDVEELLRQRAQAEERYGKELVQIARKAGGQTEMNSLRTSFDSLKQQTENVGSAHIQLALALREELRSLEEFRERQKEQRKKYEAIMDRVQKSKLSLYKKTMESKKAYDQKCRDADDAEQAFERVSANGHQKQVEKSQNKAKQCKESATEAERVYRQNIEQLERARTEWEQEHRTTCEAFQLQEFDRLTILRNALWVHCNQLSMQCVKDDELYEEVRLTLEGCDVEGDINGFIQSKSTGREPPAPVPYQNYYDREVTPLIGSPSIQPSCGVIKRFSGLLHGSPKTTPSAPAASTETLTPTPERNELVYASIEVQATQGNLNSSAQDYRALYDYTAQNSDELDISAGDILAVILEGEDGWWTVERNGQRGFVPGSYLEKLDYKDDDDK
notes: In vitro transcribed/translated in rabbit reticulocyte lysate, or expressed in COS cells
In the case of B1, the binding result in test [1] is “no binding”.

B2: GST-PST-rich+CTH PTP HSCF (GST fusion of PTP HSCF amino acids 304-453) (other, UniProt Q61152 304-453, looked up)
chain: QNLKENCAPICKEAFSLRTSSALPATSRPPGGVLRSISVPAPPTLPMADTYAVVQKRGASAGTGPGPRAPTSTDTPIYSQVAPRAQRPVAHTEDAQGTTALRRVPADQNSSGPDAYEEVTDGAQTGGLGFNLRIGRPKGPRDPPAEWTRV
notes: range 304-453; the methods give amino acids 304-453; also called GST-PTP HSCF; GST PTP HSCF; not shown: glutathione S-transferase encoded by pGEX-4T-2 (Pharmacia)
For B2, the binding result in test [2], in test [3] and in test [4] was “no binding” throughout.
